# From patent US20070207967A1, “Peptide Inhibitors of Matrix Metalloproteinase Activity” (CTT CANCER TARGETING TECHNOLOGIES OY, priority 2004, published 2007)
# Experiments:
# [1] = target: T1, MMP-9 C domain (Homo sapiens, UniProt P14780); assay: β5 I-EGF2+3 binding assay, MMP-9 C domain
# T1 construct: MMP-9 (Asp^494-Asp^688) were expressed as described (16); made in house; host or cells: E. coli (β5 fragment)
# T1 sequence (P14780 513-707 limits assumed): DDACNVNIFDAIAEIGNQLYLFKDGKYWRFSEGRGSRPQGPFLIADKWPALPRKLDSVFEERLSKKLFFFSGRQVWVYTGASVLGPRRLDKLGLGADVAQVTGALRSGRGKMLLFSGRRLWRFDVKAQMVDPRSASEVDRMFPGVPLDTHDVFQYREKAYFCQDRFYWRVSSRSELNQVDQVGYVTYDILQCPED
# Experimental: B5 I-EGF2+3 binding assay. MMP-9 C domain, MMP-2 C domain, CBD, β5 I-EGF2+3 or vitronectin (2 μg/ml) were immobilized in microtiter wells. Biotinylated β5 I-EGF2+3 fragment (2.5 μg/ml) was added to the wells which were preincubated with the competitors for 30 min in 1% BSA-PBST and then incubated further for one hour. Bound biotinylated protein was detected with streptavidin-peroxidase.
# [2] = target: T2, pro-MMP-9 (Homo sapiens, UniProt P14780); assay: Activation of purified pro-MMP-9 by MMP-3 in vitro; type: biochemical; details: 200 μM, 1 h, 37° C.
# T2 sequence (P14780 20-707 limits assumed): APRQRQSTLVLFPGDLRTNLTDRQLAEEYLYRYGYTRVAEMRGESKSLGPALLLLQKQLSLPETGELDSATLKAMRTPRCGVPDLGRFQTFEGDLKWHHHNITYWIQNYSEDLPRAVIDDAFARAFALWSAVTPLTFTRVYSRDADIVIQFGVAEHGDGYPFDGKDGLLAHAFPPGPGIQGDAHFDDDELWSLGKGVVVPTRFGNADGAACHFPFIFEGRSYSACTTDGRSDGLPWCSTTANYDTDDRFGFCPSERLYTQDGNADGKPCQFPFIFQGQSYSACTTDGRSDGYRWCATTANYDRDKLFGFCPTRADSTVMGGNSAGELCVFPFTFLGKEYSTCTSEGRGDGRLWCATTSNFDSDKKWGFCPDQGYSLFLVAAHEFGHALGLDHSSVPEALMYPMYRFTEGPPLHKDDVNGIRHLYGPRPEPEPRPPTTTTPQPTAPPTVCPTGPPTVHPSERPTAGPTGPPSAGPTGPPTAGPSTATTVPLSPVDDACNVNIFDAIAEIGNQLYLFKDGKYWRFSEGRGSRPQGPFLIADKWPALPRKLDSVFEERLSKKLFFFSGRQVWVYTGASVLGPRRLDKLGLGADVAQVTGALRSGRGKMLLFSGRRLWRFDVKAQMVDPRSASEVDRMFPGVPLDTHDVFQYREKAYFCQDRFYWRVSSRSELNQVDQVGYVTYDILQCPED
# [3] = target: T3, CBD (Homo sapiens, UniProt P14780); assay: Gelatin binding to immobilized CBD; details: biotinylated gelatin
# T3 construct: CBD (amino acids Gly^204-Gly^373) was amplified from MMP-9 cDNA; made in house; host or cells: E. coli
# T3 sequence (P14780 223-392 limits assumed): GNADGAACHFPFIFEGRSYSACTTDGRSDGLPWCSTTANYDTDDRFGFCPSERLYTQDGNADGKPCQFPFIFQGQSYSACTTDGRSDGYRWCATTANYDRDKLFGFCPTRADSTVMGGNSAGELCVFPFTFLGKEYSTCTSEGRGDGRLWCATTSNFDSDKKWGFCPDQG
# Experimental: Gelatin and CBD binding assays. Recombinant CBD or human plasma fibronectin (Calbiochem) (0.2 μg/ml in TBS) was immobilized in microtiter wells. The wells were saturated with 1% BSA-PBST. Biotinylated gelatin (0.2 μg/ml in 1% BSA-PBST) was added with or without peptides at the concentrations indicated or with an excess of unlabelled gelatin (10 μg/ml) and allowed to bind for 1 h. Bound gelatin was detected with streptavidin-peroxidase. CBD binding to immobilized fibronectin, the 110-kDa fragment of fibronectin (Upstate Biotechnology) or urea-denaturated human plasma vitronectin (17) (1 μg/well) was studied using biotinylated CBD (5 μg/ml) in 1% BSA-PBST in the presence or absence of 20 μM peptides.
# [4] = target: T1, MMP-9 C domain; assay: Dimerization of the MMP-9 C domain; type: binding; details: 125I-labelled C domain on unlabelled C domain
# Experimental: Dimerization of the MMP-9 C domain. Recombinant C domain or CBD at a 5 μg/ml concentration in PBS were coated on microtiter wells followed by blocking with 1% BSA-PBST. ^125I-labelled C domain was preincubated with the peptides for 30 minutes in 1% BSA-PBST and then added to the wells. After a 2 hour incubation, the wells were washed. Bound radioactivity was eluted with 1% SDS and measured with a gamma-counter.
# [5] = target: trypsin-activated MMP-9 (Homo sapiens, UniProt P14780); assay: Gelatinase inhibition assay (gelatin degradation), MMP-9; type: biochemical; details: biotinylated gelatin substrate
# trypsin-activated MMP-9, sequence (P14780 107-707 limits assumed): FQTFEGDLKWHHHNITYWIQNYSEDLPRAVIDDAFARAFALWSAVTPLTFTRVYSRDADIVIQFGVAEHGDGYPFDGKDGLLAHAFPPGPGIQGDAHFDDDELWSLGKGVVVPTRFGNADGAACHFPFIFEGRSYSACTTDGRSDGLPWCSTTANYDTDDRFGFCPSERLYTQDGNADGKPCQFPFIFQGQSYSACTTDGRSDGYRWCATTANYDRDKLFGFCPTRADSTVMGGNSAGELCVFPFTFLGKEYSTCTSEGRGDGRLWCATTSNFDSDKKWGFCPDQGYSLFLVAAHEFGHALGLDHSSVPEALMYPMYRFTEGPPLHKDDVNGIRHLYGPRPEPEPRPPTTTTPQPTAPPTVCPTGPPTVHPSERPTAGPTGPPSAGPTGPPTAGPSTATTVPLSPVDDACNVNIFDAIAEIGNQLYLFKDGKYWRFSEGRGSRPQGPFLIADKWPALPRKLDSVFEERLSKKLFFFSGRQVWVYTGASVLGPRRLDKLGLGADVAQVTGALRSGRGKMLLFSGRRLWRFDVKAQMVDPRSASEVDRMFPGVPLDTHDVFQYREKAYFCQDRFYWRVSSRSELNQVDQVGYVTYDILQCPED
# Experimental: Gelatinase inhibition assay. Inhibition of aminophenylmercuric acetate (APMA)-activated MMP-2 and trypsin-activated MMP-9 was performed using biotinylated gelatin as a substrate (15).
# [6] = system: HT1080 fibrosarcoma; assay: HT1080 invasion through matrigel; type: cell-based, human; details: 200 μM concentration
# Experimental: Cell migration and invasion. The cell migration assay was conducted using transwell migration chambers (8 μm pore size, Costar) in 10% serum-containing medium (2,14). Briefly, the membranes were coated on both sides with 40 μg/ml GST or with the β2 integrin ligand peptide […]-GST fusion (GST-LLG-C4) and blocked with complete medium. THP-1 cells (50 000/100 μl) were preincubated with the peptides for 1 h in serum-containing medium. The cells were allowed to migrate for 16 h and were then stained with crystal violet and counted (14). The HT1080 (20 000 cells/I100 μl) invasion assay was performed as the THP-1 migration, except that matrigel coated transwells (BD Biosciences) were used.
# [7] = target: T2, pro-MMP-9; assay: Plasmin/MMP-3-mediated pro-MMP-9 activation in HT1080 cells, zymography; type: cell-based; details: PDBu-activated HT1080, plasminogen, peptides 200 μM
# Experimental: Activation of MMP-9. THP-1 cells (40 000/100 μl) or confluent HT1080 cells were incubated for 16 h in the presence or absence of 2.5 μg/ml plasminogen, 0.5 μg/ml pro-MMP-3 (Oncogene Research Products), 40 nM PDBu, and the peptides at a 200 μM concentration unless otherwise indicated. Aliquots of the conditioned media were analyzed by gelatin zymography (9). […] The samples were analyzed by gelatin zymography.
sequence,measurement,setting,value
CRVYGPYLLC,Competition of biotinylated β5 I-EGF2+3 binding to the MMP-9 C domain,[1],inhibitable
same,Inhibition of activation of purified pro-MMP-9 by MMP-3,[2],did not inhibit
same,Inhibition of gelatin binding to immobilized CBD,[3],not
same,Inhibition of dimerization of the C domain,[4],inhibited
same,Inhibition of MMP-9 activity in gelatin degradation assay,[5],did not inhibit
same,Inhibition of HT1080 invasion into matrigel,[6],50%
same,Inhibition of pro-MMP-9 activation,[7],inhibited pro-MMP-9 activation strongly
